The source of these data is publication PMC12325948, “14-3-3 binding maintains the Parkinson’s associated kinase LRRK2 in an inactive state” (Nature Communications, 2025).

The target of data set [1] is endogenous 14-3-3 (detected with anti-pan-14-3-3) (UniProt P61981). Put plainly: Co-IP.
The target of data set [2] is N-terminal His-tagged 14-3-3γ (Uniprot P61981) (UniProt P61981). Put plainly: MST. Particulars: parent: est. 210 nM, read off a plot.
Data set [3] deals with Flag-tagged LRRK2 R1728H expressed in HEK293FT cells (human) (UniProt Q5S007). Put plainly: co-IP; HEK293FT cells transfected with WT or mutant Flag-tagged LRRK2, FLAG-M2 resin, elution with 3X-FLAG peptide, blot with anti-pan-14-3-3; ratio of endogenous 14-3-3 to LRRK2; in one panel cells treated with MLi-2 or Rebastinib.
Data set [4] deals with Flag-tagged LRRK2 WT expressed in HEK293FT cells (human) (UniProt Q5S007). The data set is described as above.
For data set [5], the target named is LRRK2 mutants at the secondary interface (COR residues) in the Co-IP of Fig. 2d. The data set is described as above.
In data set [6] the target is Full-length human LRRK2 (Uniprot Q5S007 with R85H mutation), N-terminal 3X-FLAG, purified (human) (UniProt Q5S007). Put plainly: SEC + other: mass photometry; LRRK2 dimers isolated by gel filtration and confirmed by mass photometry.
Data set [7] addresses Full-length human LRRK2 (Uniprot Q5S007 with R85H mutation), N-terminal 3X-FLAG, purified, Q5S007. Put plainly: MST. Particulars: chain shown with the change; right graph; 14-3-3 Variants; parent: est. 210 nM; read off a plot.
Data set [8] concerns the target Purified LRRK2 mutated at the secondary interaction residue L1727 (human), Q5S007.
The target in data set [9] is Purified LRRK2 mutated at the secondary interaction residue N1730 (human), Q5S007.
Purified LRRK2 mutated at the secondary interaction residue N1730 (human), Q5S007, sequence (Q5S007 whole entry, change not shown): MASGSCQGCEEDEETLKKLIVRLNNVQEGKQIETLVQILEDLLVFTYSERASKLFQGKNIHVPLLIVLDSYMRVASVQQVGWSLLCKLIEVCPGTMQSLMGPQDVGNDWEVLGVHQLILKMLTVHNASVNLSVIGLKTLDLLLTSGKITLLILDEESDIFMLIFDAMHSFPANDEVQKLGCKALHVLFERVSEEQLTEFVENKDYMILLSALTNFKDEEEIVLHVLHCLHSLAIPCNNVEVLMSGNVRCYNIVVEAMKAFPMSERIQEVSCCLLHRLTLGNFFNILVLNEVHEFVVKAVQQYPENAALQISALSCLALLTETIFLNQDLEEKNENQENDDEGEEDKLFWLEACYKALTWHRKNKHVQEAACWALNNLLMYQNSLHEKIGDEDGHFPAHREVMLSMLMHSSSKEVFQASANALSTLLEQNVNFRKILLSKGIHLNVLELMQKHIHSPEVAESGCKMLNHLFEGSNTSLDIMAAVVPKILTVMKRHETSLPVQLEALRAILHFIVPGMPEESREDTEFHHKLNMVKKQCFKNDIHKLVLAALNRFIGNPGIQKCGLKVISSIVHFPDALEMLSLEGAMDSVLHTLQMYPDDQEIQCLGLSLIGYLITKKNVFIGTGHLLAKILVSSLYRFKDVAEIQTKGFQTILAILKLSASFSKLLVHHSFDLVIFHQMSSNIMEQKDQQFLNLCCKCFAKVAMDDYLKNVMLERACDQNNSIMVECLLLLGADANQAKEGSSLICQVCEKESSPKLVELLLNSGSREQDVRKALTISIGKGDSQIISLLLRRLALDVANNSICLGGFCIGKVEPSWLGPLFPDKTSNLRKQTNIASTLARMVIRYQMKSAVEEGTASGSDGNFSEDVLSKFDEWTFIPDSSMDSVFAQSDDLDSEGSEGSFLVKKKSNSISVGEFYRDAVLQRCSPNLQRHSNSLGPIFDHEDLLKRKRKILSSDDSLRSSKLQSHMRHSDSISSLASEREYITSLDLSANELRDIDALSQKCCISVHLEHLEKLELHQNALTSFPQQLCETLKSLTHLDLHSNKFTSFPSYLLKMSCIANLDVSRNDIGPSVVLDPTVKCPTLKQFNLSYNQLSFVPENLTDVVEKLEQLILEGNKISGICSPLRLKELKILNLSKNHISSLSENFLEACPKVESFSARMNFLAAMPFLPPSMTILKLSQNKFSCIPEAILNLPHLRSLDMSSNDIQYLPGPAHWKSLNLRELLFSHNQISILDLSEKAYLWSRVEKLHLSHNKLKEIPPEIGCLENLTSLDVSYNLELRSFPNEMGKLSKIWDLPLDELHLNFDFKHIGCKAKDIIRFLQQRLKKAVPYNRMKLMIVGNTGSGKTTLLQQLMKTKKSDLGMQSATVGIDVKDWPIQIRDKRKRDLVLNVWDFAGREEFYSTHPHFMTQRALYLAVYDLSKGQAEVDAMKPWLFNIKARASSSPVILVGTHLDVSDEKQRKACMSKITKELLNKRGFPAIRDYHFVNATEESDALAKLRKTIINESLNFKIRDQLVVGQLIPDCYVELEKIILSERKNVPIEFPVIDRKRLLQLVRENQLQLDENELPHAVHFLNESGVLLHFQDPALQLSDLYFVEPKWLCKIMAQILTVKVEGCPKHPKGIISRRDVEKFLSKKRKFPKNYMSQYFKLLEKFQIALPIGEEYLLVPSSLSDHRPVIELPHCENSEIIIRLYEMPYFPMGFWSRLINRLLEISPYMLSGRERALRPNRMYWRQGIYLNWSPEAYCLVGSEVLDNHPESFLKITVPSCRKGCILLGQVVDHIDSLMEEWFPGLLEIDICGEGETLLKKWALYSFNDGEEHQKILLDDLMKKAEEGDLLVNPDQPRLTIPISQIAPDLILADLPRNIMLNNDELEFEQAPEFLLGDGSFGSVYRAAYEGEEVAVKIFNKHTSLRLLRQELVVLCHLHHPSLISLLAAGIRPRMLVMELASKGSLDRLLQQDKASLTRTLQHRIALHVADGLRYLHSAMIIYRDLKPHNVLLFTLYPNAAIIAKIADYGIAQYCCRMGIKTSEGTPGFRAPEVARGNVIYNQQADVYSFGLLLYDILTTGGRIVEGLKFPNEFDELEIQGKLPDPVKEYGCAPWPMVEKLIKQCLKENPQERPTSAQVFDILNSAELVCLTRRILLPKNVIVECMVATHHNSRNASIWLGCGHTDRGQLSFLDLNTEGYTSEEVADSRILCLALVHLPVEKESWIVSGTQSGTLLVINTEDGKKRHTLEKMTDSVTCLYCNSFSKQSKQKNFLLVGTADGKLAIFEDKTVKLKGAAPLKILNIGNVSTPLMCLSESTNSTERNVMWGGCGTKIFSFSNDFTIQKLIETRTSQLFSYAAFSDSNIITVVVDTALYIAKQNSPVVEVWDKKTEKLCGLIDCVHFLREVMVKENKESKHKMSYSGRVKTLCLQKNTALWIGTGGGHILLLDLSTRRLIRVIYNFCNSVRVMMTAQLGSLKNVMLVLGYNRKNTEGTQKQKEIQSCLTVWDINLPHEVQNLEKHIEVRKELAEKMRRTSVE
For data set [10], the target named is Purified LRRK2 mutated at the secondary interaction residue R1728 (mutant with reduced inhibition) (human), Q5S007.
Purified LRRK2 mutated at the secondary interaction residue R1728 (mutant with reduced inhibition) (human), Q5S007, sequence (Q5S007 whole entry, stated change not applied): as the sequence (Q5S007 whole entry, change not shown) above
In data set [11] the target is Purified LRRK2 R1441G (human), Q5S007.
Data set [12] has as its target Purified LRRK2 R1628P (human), Q5S007.
For data set [13], the target named is Purified LRRK2 R1728H (human), Q5S007.
Data set [14] concerns the target Full-length human LRRK2 (Uniprot Q5S007 with R85H mutation), N-terminal 3X-FLAG, purified (human) (UniProt Q5S007).
The target of data set [15] is Purified LRRK2 mutated at the primary interaction residues S910/S935 (human) (UniProt Q5S007).
Data set [16] addresses Full-length human LRRK2 (Uniprot Q5S007 with R85H mutation), N-terminal 3X-FLAG, purified (human) (UniProt Q5S007). Put plainly: MST; as a3 with the type I kinase inhibitor MLi-2 at 2 uM.
The target is the same in data set [17]. Put plainly: MST; LRRK2 labelled with RED-NHS 2nd generation at 40 nM, 14-3-3 titrated from a 485 µM stock in 1:2 dilutions, 25 °C for 1 h, 1:1 binding model.
Data set [18] addresses Purified LRRK2 mutants on the LRRK2 side of the COR:14-3-3_(2) interface (MST, Fig. 2e right). The description is as above.
Data set [19] addresses Full-length human LRRK2 (Uniprot Q5S007 with R85H mutation), N-terminal 3X-FLAG, purified (human) (UniProt Q5S007). Put plainly: SEC-MALS; pre-formed dimeric LRRK2 at 130 nM without and with 14-3-3γ at 1 to 100 times that of LRRK2, Superose 6 Increase 15/150, gel filtration buffer.
Data set [20] shares this target. Put plainly: cryo-EM structure; LRRK2 monomer fraction at 50 mM NaCl with at least 60-fold molar excess of 14-3-3γ, cross-linked with 1 mM BS3, Superose 6; map at 3.96 Å, local refinement 3.87 Å.
Data set [21] deals with the molecule itself. Described as above.
The mark [22] stands for this setting: in cells, n = 3, parent: est. 1.0, read off a plot.
[23] abbreviates: left graph, Flag-tagged LRRK2 and endogenous 14-3-3, n = 3, parent: est. 1.0, read off a plot.
Setting [24] is: right graph, Flag-tagged LRRK2 and endogenous 14-3-3, n = 3, parent: est. 1.0, read off a plot.

Full-length human LRRK2 (Uniprot Q5S007 with R85H mutation), N-terminal 3X-FLAG, purified, Q5S007, sequence (Q5S007 other isoform, or with tags, fused parts or gaps R85H): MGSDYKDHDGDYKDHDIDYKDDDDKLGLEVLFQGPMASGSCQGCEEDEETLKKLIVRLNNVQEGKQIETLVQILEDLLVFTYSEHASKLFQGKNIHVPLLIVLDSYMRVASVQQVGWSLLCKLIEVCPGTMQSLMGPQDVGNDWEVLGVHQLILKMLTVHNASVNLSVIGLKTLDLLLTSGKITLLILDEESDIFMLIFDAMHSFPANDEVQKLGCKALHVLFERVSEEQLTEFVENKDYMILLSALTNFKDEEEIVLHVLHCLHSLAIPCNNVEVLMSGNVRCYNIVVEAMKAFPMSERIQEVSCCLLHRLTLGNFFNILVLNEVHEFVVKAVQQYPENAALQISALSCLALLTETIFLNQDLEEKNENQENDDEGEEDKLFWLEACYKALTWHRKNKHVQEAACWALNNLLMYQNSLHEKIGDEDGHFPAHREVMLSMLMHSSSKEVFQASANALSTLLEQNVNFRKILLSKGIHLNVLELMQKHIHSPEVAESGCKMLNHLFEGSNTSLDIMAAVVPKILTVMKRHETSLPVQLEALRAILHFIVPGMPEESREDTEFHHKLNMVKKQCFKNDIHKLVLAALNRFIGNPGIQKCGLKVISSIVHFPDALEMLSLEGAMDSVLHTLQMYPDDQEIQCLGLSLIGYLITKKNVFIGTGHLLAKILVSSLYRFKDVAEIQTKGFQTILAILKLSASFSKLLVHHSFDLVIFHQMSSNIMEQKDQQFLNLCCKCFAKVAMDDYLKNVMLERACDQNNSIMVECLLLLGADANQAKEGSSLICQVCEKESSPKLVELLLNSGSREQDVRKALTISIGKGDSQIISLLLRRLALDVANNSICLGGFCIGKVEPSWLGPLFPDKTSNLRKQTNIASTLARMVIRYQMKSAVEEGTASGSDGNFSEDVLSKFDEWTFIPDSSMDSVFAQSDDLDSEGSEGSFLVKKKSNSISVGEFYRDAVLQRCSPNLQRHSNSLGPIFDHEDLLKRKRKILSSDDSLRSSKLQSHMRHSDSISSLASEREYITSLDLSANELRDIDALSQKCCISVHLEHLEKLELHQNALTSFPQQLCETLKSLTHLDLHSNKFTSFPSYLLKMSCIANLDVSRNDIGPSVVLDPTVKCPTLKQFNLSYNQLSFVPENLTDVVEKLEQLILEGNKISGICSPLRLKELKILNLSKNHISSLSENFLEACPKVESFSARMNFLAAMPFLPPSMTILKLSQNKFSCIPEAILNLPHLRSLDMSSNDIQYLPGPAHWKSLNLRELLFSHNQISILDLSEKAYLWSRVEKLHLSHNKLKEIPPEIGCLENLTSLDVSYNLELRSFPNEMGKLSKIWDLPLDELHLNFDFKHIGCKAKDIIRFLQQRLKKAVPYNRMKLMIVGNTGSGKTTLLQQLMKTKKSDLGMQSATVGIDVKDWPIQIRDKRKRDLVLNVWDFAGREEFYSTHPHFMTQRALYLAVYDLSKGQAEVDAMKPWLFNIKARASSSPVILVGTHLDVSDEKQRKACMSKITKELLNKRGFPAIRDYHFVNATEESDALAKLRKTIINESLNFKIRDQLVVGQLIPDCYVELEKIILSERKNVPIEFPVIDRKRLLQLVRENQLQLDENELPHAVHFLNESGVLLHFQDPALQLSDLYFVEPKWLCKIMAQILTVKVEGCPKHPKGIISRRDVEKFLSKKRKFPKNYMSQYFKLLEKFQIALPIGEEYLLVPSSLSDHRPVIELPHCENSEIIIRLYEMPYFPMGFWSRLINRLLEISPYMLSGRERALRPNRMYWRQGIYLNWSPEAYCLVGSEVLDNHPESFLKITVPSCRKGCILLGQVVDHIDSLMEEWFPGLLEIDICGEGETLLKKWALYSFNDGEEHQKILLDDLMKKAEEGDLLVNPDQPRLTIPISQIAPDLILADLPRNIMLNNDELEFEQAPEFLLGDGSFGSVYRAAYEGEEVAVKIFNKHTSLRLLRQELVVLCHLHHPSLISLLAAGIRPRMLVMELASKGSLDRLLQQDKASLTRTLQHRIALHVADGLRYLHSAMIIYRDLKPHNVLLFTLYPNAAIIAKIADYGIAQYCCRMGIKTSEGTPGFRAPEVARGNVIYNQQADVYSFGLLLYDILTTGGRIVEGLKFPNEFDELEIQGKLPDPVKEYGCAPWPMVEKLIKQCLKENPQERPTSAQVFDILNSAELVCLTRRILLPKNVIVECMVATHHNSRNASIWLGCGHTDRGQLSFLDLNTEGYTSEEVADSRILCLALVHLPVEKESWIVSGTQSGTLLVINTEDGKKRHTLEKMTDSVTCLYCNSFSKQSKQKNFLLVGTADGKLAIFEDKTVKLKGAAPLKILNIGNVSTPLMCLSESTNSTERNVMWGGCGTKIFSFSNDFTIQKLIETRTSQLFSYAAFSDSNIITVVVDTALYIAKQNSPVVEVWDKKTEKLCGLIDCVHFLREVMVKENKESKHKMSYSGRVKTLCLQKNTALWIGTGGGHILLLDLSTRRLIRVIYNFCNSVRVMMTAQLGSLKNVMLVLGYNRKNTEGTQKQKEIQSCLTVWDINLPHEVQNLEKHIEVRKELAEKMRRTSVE
Purified LRRK2 R1628P (human), Q5S007, sequence (Q5S007 whole entry R1628P): as the sequence (Q5S007 whole entry, change not shown) above, with R1628P counted along it

As to “Flag-tagged LRRK2 WT expressed in HEK293FT cells, Q5S007 R1628P”, the ratio to parent in [1] (setting [22]) amounted to 1.6.
As for “Flag-tagged LRRK2 WT expressed in HEK293FT cells, Q5S007 L1635A”, the ratio to parent in data set [1] (setting [23]) was determined as 0.11.
For “Full-length human LRRK2 (Uniprot Q5S007 with R85H mutation), N-terminal 3X-FLAG, purified, Q5S007 R1728A”, in data set [2] (right graph, LRRK2 Variants), the Kd was 560 nM.
As for “Flag-tagged LRRK2 WT expressed in HEK293FT cells, Q5S007 R1441G”, in data set [1] (setting [22]), the ratio to parent amounted to 0.07.
Take “Flag-tagged LRRK2 WT expressed in HEK293FT cells, Q5S007 R1728A”: the ratio to parent in data set [1] (right graph, Flag-tagged LRRK2 and endogenous 14-3-3, n = 3, marked ns against WT, parent: est. 1.0, read off a plot) stood at 0.98.
Consider “Flag-tagged LRRK2 WT expressed in HEK293FT cells, Q5S007 S1636A”, for which, in data set [1] (setting [23]), the ratio to parent amounted to 0.54.
With “Flag-tagged LRRK2 WT expressed in HEK293FT cells, Q5S007 S910A; S935A”, the ratio to parent in data set [1] (setting [22]) came to 0.02; in [1] (setting [23]) it was 0.03; in [1] (setting [24]), 0.01.
“endogenous 14-3-3 (detected with anti-pan-14-3-3) (from UniProt P61981 1-247) (natural protein)”: the percent decrease in binding relative to WT in data set [3] was found to be 50%. Further, the fold decrease in co-immunoprecipitated 14-3-3 after treatment of the cells with MLi-2 in data set [4] amounted to 7 fold. In addition, in data set [5], the fold decrease in co-immunoprecipitated 14-3-3 lay in the range of 2 to 13 fold and the percent reduction in binding against WT was 40 to 90%.
In the case of “Flag-tagged LRRK2 WT expressed in HEK293FT cells, Q5S007 N1730A”, in [1] (setting [24]), the ratio to parent was 0.18.
As to “Flag-tagged LRRK2 WT expressed in HEK293FT cells, Q5S007 E1632A”, the ratio to parent in data set [1] (setting [23]) was determined as 0.07.
Take “Full-length human LRRK2 (Uniprot Q5S007 with R85H mutation), N-terminal 3X-FLAG, purified, Q5S007 L1727A”: the Kd in [2] (right graph, LRRK2 Variants) is 470 nM.
As for “Flag-tagged LRRK2 WT expressed in HEK293FT cells, Q5S007 G2019S”, the ratio to parent in data set [1] (setting [22]) came out at 1.5.
In the case of “Full-length human LRRK2 (Uniprot Q5S007 with R85H mutation), N-terminal 3X-FLAG, purified, Q5S007 S910A; S935A”, in data set [2] (left graph, bar labelled S910/S935A), the Kd amounted to 230000 nM.
As to “Full-length human LRRK2 (Uniprot Q5S007 with R85H mutation), N-terminal 3X-FLAG, purified (from UniProt Q5S007 1-2527) (enzyme)”, in [6], the stoichiometry N was determined as 2.
In the case of “Flag-tagged LRRK2 WT expressed in HEK293FT cells, Q5S007 L1727A”, in data set [1] (setting [24]), the ratio to parent amounted to 0.63.

B1: N-terminal His-tagged 14-3-3γ (Uniprot P61981), P61981 Y216A (protein)
chain: MVDREQLVQKARLAEQAERYDDMAAAMKNVTELNEPLSNEERNLLSVAYKNVVGARRSSWRVISSIEQKTSADGNEKKIEMVRAYREKIEKELEAVCQDVLSLLDNYLIKNCSETQYESKVFYLKMKGDYYRYLAEVATGEKRATVVESSEKAYSEAHEISKEHMQPTHPIRLGLALNYSVFYYEIQNAPEQACHLAKTAFDDAIAELDTLNEDSAKDSTLIMQLLRDNLTLWTSDQQDDDGGEGNN
As to B1, the dissociation constant Kd in data set [7] stood at 680 nM.

B2: N-terminal His-tagged 14-3-3γ (Uniprot P61981), P61981 1-247 (natural protein)
chain: MVDREQLVQKARLAEQAERYDDMAAAMKNVTELNEPLSNEERNLLSVAYKNVVGARRSSWRVISSIEQKTSADGNEKKIEMVRAYREKIEKELEAVCQDVLSLLDNYLIKNCSETQYESKVFYLKMKGDYYRYLAEVATGEKRATVVESSEKAYSEAHEISKEHMQPTHPIRLGLALNYSVFYYEIQNAPEQACHLAKTAFDDAIAELDTLNEDSYKDSTLIMQLLRDNLTLWTSDQQDDDGGEGNN
As to B2, the inhibition of Rab10 phosphorylation by LRRK2 in an in vitro kinase assay, 14-3-3 at 300 µM in [8], in data set [9] and in data set [10] was 25% in each case. For the same molecule, in data set [11], the reduction of the 14-3-3 mediated inhibition of LRRK2 kinase activity was found to be 30%. The reduction of the inhibition of LRRK2 kinase activity by 14-3-3 compared to WT in data set [12] and in data set [13] was 20% each time.

B3: N-terminal His-tagged 14-3-3γ (Uniprot P61981), P61981 Q224A (protein)
chain: MVDREQLVQKARLAEQAERYDDMAAAMKNVTELNEPLSNEERNLLSVAYKNVVGARRSSWRVISSIEQKTSADGNEKKIEMVRAYREKIEKELEAVCQDVLSLLDNYLIKNCSETQYESKVFYLKMKGDYYRYLAEVATGEKRATVVESSEKAYSEAHEISKEHMQPTHPIRLGLALNYSVFYYEIQNAPEQACHLAKTAFDDAIAELDTLNEDSYKDSTLIMALLRDNLTLWTSDQQDDDGGEGNN
Regarding B3, the Kd in [7] turned out to be 490 nM.

B4: N-terminal His-tagged 14-3-3γ (Uniprot P61981) (natural protein, human)
chain: MVDREQLVQKARLAEQAERYDDMAAAMKNVTELNEPLSNEERNLLSVAYKNVVGARRSSWRVISSIEQKTSADGNEKKIEMVRAYREKIEKELEAVCQDVLSLLDNYLIKNCSETQYESKVFYLKMKGDYYRYLAEVATGEKRATVVESSEKAYSEAHEISKEHMQPTHPIRLGLALNYSVFYYEIQNAPEQACHLAKTAFDDAIAELDTLNEDSYKDSTLIMQLLRDNLTLWTSDQQDDDGGEGNN
notes: 14-3-3γ, Uniprot P61981; A TEV site follows the His tag; no cleavage is described; also called 14-3-3 gamma; 14-3-3 dimer; source: E. coli BL21*(DE3), purified (Ni-NTA, Superdex 75)
Molecule B4 showed an inhibition of Rab10 phosphorylation by LRRK2 in an in vitro kinase assay, 14-3-3 from 0 to 300 µM in data set [14] of 50%. Besides, the inhibition of Rab10 phosphorylation by LRRK2 in an in vitro kinase assay, 14-3-3 at 300 µM in data set [15] was found to be 25%. In [16], this molecule returned a fold decrease in binding affinity with MLi-2 against no inhibitor of 2 fold. Further, in data set [17], the Kd was determined as 212 nM. This molecule showed a fold increase in KD against the wild-type pair in [18] of 2 to 3 fold. The stoichiometry N (14-3-3γ dimer per LRRK2 dimer) in data set [19] was found to be 1. The molecule further registered a stoichiometry N (14-3-3 dimer per LRRK2 monomer) in [20] of 1. Also, the “stoichiometry N” value in data set [21] worked out at 2.

B5: N-terminal His-tagged 14-3-3γ (Uniprot P61981), P61981 R227A (protein)
chain: MVDREQLVQKARLAEQAERYDDMAAAMKNVTELNEPLSNEERNLLSVAYKNVVGARRSSWRVISSIEQKTSADGNEKKIEMVRAYREKIEKELEAVCQDVLSLLDNYLIKNCSETQYESKVFYLKMKGDYYRYLAEVATGEKRATVVESSEKAYSEAHEISKEHMQPTHPIRLGLALNYSVFYYEIQNAPEQACHLAKTAFDDAIAELDTLNEDSYKDSTLIMQLLADNLTLWTSDQQDDDGGEGNN
Consider B5, for which the equilibrium dissociation constant (Kd) in data set [7] is 640 nM.
